Earlier results on 1 substance are cited in PMC9477365.

Series [1] addresses fibrin (gamma' site) gamma' chain (Homo sapiens) (UniProt P02671).
Series [2] deals with fibrin (E domain site) E domain (Homo sapiens) (UniProt P02671).

In the case of thrombin (from UniProt P00734), the results for the dissociation constant Kd in series [1] and in series [2] were 9 µM and 2.8 µM, respectively.

The Kd is the concentration at which binding is half-saturated.
